Data as given in the RNAGym collection of RNA variant scans (doi:10.1073/pnas.2313332121).
Variants at the floor of the assay were thinned out.

B1: TPR 5TU (parent)
chain: GGAUCUUCUCGAUCUAACAAAAAAGACAAAUCUGCCACAAAGCUUGAGAGCAUCUUCGGAUGCAGAGGCGGCAGCCUUCGGUGGCGCGAUAGCGCCAACGUUCUCAACUAUGACACGCAAAACGCGUGCUCCGUUGAAUGGAGUUUAUCAUG

Variants of: B1
Assay: polymerase ribozyme fitness, log enrichment relative to wild type (log ratio); higher = more active; in vitro selection for triplet polymerase activity
Summary of the method: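 To select mutant libraries of each subunit of a heterodimeric triplet polymerase ribozyme, built by PCR and transcribed, each was annealed with a biotinylated primer, partner subunit and triplets, then incubated frozen at −7 °C. Extended constructs were gel-excised, captured on streptavidin beads and amplified by RT-PCR, in one round carried out in triplicate. Illumina sequencing of input and output libraries kept genotypes with ≥10 input reads and ≥1 read per output. Fitness is the base-2 logarithm of genotype enrichment relative to wild-type enrichment, from inverse-variance-weighted replicate averages.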

| Variant | polymerase ribozyme fitness (log ratio) |
| --- | --- |
| A20G C57U G62C G136U | -3.44 |
| A20G G80C U82A G100A U135C | ≤ -4.2 |
| A21C A30C A41C G59A C95U | ≤ -4.2 |
| A20G G25A A49G C54U C76U G84A A122U U145G | ≤ -4.2 |
| A20C U55G C57U A120C | -0.73 |
| A21C A52U G74A G94C A121U | ≤ -4.2 |
| A20U A47C | -0.824 |
| A21C C85U | -0.369 |
| A20U G86A C87G A91U C118A | ≤ -4.2 |
| A20C G86A | -2.24 |
| A20C U53A C54A G59A G84A G124C | -2.39 |
| A20U G46A C76A C87G G94C C105G U144A | ≤ -4.2 |
| A20C U56A C93A C116A | -1.28 |
| A20U U56G G65A C76U C85A G141C U148C | ≤ -4.2 |
| A20U C63A G84U C87U | -3.3 |
| A21C A24U C54G C85U A121C | -0.525 |
| A20U A23G G88A C99G C149G | ≤ -4.2 |
| A21C A89C C95U A142G | -3.16 |
| A20U G42A G62A G86U U134G G140U | ≤ -4.2 |
| A20C U101G C149U | -1.64 |
| A20C U56A C75U | -0.244 |
| A21C A60G A73U C93G A137U | ≤ -4.2 |
| A20U U61G C87U C95U | -3.33 |
| A20C G83C C118G U130G | ≤ -4.2 |

| Variant | polymerase ribozyme fitness (log ratio) |
| --- | --- |
| A20U A30C A41G G74U C93U | ≤ -4.2 |
| A20U C57U A66U C95A U102C G141A U145G | ≤ -4.2 |
| A20G A91G U146A | -3.96 |
| A20U C32G U56G G81A C93U A107G C131U C132G U135G A147G | ≤ -4.2 |
| A20U U55G C93G G94C A142G | ≤ -4.2 |
| A20G C27G G67C U78G A89U C93G G124A U151G | ≤ -4.2 |
| A20C G83U A89U A97U | -2.13 |
| A20U A23C C79U G94C C95U U148A | ≤ -4.2 |
| A20G A21C G84U C95G G117U | -0.439 |
| A20U G83U U90G C99A A107U U148A | ≤ -4.2 |
| A20G A22U G59A C93G A98G A137G U139G | ≤ -4.2 |
| A20U A23U A24U C51U A60G C85G | ≤ -4.2 |
| A20U G92A A121U G141C | -4.03 |
| A20U C54A C96G C108G U109G C118G C132A G143A U148A C149U | ≤ -4.2 |
| A20G C93A C132G U134G U148G | ≤ -4.2 |
| A21C A52C C85U G117C | -0.924 |
| A20G G34A C118G A121C | -3.83 |
| A20G C32G G86U C87A U109A | ≤ -4.2 |
| A20G A22U G141A | -1.8 |
| A20U C38G C57U G86A | -3.63 |
| A20U C51U U55G C57G A120C | -3.76 |
| A20G A40C A41G A49C C76G G88A C96U | ≤ -4.2 |
| A20U A29U U55A A66C A106U A138U | ≤ -4.2 |
| A20G A21C C93A A97G | -3.83 |

| Variant | polymerase ribozyme fitness (log ratio) |
| --- | --- |
| A20U G48A G84A G152C | ≤ -4.2 |
| A20U A23U A64C A91G A107G | ≤ -4.2 |
| A20G A30U G83A A110C U148C | ≤ -4.2 |
| A20C G48U G83U | -2.07 |
| A20U A52U C76A C93A | ≤ -4.2 |
| A20G A91U | ≤ -4.2 |
| A20G A24U U111A A142U G143U | ≤ -4.2 |
| A20G G70C C75U C93A C95U U109C | ≤ -4.2 |
| A20U G94A | -1.88 |
| A21C C57G G81A A115C | -1.84 |
| A20U A73G C79A C96G | ≤ -4.2 |
| A20U U101A | -2.4 |
| A20U U61A | -2.43 |
| A20U C32G C57U A73G U82G G92A | ≤ -4.2 |
| A20C U56A A107U | -2.71 |
| A20U C57U G59U G62U C76U C96G A147G | ≤ -4.2 |
| A20U C85G C125A U145C | -3.41 |
| A20U G50A G86U C96G | ≤ -4.2 |
| A20C G48C G62A | -2.35 |
| A20U A41U U55A A66U G84A C116A | ≤ -4.2 |
| A20U C57G C93U C123U | -2.57 |
| A21C C32G G48A A122G G126U | ≤ -4.2 |
| A21C C93A U104A G141C U144G G152A | ≤ -4.2 |
| A20U A47U A49C U53A G80C A91U C96U A137G G140U | ≤ -4.2 |

| Variant | polymerase ribozyme fitness (log ratio) |
| --- | --- |
| A20G A30U C95U | -3.5 |
| A20U A37C A52G G124U | -2.09 |
| A20U G48A G68U G83C C103G A138G G143C | ≤ -4.2 |
| A20U G74A A137U | ≤ -4.2 |
| A20U A24G A29C C38G G80C A89G C105U C116G | ≤ -4.2 |
| A20U U56A C76U G133A | ≤ -4.2 |
| A20G U53A U56A G58A C69U C93U | -3.35 |
| A20U U45A C87G | -4.13 |
| A20G A22U C93G | -4.09 |
| A20U U31C A49C C57U A60G G62C C96A | -4.15 |
| A20G A40U U77C | ≤ -4.2 |
| A20U A40U U56A C96A G141C | -2.73 |
| A20C U144G | 0.273 |
| A21C C93G | -3 |
| A21C A73U A107C A121U C149U | ≤ -4.2 |
| A20G A29U C51G C87G | ≤ -4.2 |
| A20U C32G A40G U55G | -4.19 |
| A21C C93A C99U G136U A142U | ≤ -4.2 |
| A20U A122U U144G | -0.756 |
| A20G C27G G65U G81A G88A A138C G143U | ≤ -4.2 |
| A21C C57A G81U C85A U139G | -0.214 |
| A21C A137G | -0.909 |
| A21C A142C | 0.655 |
| A20U A28U A39U G83A G141A | -4.1 |

| Variant | polymerase ribozyme fitness (log ratio) |
| --- | --- |
| A20G A37G A106G A138C | -3.84 |
| A20U A40C U55A A73U | -3.94 |
| A20C G92A U101G G124A C129U | -3.24 |
| A21C C85U A138U | ≤ -4.2 |
| A21C A24U C32A G80A C93U C95A | ≤ -4.2 |
| A20G A142C | -1.06 |
| A20U G83A C96G C118U U134A U144A | -3.46 |
| A21C A24U A40G U144A | -3.76 |
| A20U G62U G86A A107U G140A | ≤ -4.2 |
| A20U A30U C76U A89G A91C A122G U134G | ≤ -4.2 |
| A21C A26U C38U C87G C105U | ≤ -4.2 |
| A20U U82A C93U U145G | -2.69 |
| A20C G62A G86U | -2.06 |
| A20G C69U G84C G126C G136A | -1.72 |
| A21C A41C A115G | -1.51 |
| A20G A24G A40C A49C C85A | ≤ -4.2 |
| A20G C35G A49C A73G C87G | ≤ -4.2 |
| A20U A41U G48A A49G C96G A106G A107G U135G | ≤ -4.2 |
| A20G A28G U90A C93A C95G A106U C123U | ≤ -4.2 |
| A20G G74A C87U U101C A107U | ≤ -4.2 |
| A21C A29G U44G C63U G68U C103U A137G G143U | ≤ -4.2 |
| A21C A37C G84A | 0.0671 |
| A20U A23G G50U G86A A110C C129G G140A | ≤ -4.2 |
| A20C U130G U144C | -4.14 |

| Variant | polymerase ribozyme fitness (log ratio) |
| --- | --- |
| A20G C27A A47G G92A | ≤ -4.2 |
| A20C U104G A107C U145G | ≤ -4.2 |
| A20U C38U C75A C87G A107U C132U | ≤ -4.2 |
| A20G A23C U144G | ≤ -4.2 |
| A20U U55A G68U C85G C105U G124A G140C | ≤ -4.2 |
| A20U A24C C54U C63U G65U G84A C132G U148A | ≤ -4.2 |
| A20G A29U C51A A106C A113U | -4.2 |
| A20U C51U G83A C93G C96U C103A C105A | ≤ -4.2 |
| A20G A21C U31C C103A U144G | -1.73 |
| A20G C57G A66C G94A C132U | ≤ -4.2 |
| A20G G80A U82G C95U | -1.15 |
| A20C U61G G112C | ≤ -4.2 |
| A21C A28U A30U A47G | ≤ -4.2 |
| A20G A107G C116G A122G G124A G128C | ≤ -4.2 |
| A20U C32U U56A A142U | -3.91 |
| A20U A49C G58C C87U | ≤ -4.2 |
| A20U C35A G92U A110U | ≤ -4.2 |
| A20G G68U C85U | ≤ -4.2 |
| A21C C87G | -3.89 |
| A20G C76A U90G A97G G136C | ≤ -4.2 |
| A20G A22U C87U | -2.33 |
| A20U A23C C35U C75U C103G G136A | ≤ -4.2 |
| A20G A73G C85A | -2.05 |
| A20G A52U C57A G62U C95A G133C A150U | -1.8 |

| Variant | polymerase ribozyme fitness (log ratio) |
| --- | --- |
| A20U A52G G58A C76G G81A G86A A122C | ≤ -4.2 |
| A21C A40C G48A C85A G94C | -2.1 |
| A20U A29G G48C A49C G117A U134G A137C U139A | ≤ -4.2 |
| A21C A40C C99G | -0.927 |
| A21C C43U C79G G83U C87G A91G A119U G141A | ≤ -4.2 |
| A20U A21U | -0.727 |
| A20C U31G A49C A52C U53C | ≤ -4.2 |
| A20U G83C G92A U127A G128U | ≤ -4.2 |
| A20U G48A G50A C76G C96G U135G | ≤ -4.2 |
| A20C G94A G136U | -3.83 |
| A20G A40C C72U G92A | -4.04 |
| A21C A24G A39G C54U U78G G94A C129G U134G G140U U145G | ≤ -4.2 |
| A20U A28U G42C G86U C93A C114U | -4.17 |
| A20U A23C A47C U55G G86U A91G | ≤ -4.2 |
| A20U A39C G48A G94A | ≤ -4.2 |
| A20G G59A | -0.551 |
| A21C A26C A28C G70U A107C A147C | ≤ -4.2 |
| A20U A49G A66C A73U C79U A106U A107C | ≤ -4.2 |
| A21C C85A U127A | ≤ -4.2 |
| A20U C125A | -2.05 |
| A20G A24G C51U C85U A120U C149G | ≤ -4.2 |
| A20U U53A U55A C118G | -3.98 |
| A21C A28U G59C A97G U134C | ≤ -4.2 |
